# Molecular target: the molecule itself
# Assay: light scattering at 340 nm
protein,measurement,value
"^ΔCFtsH (T. maritima FtsH variant devoid of the N-terminal TM domain (residues 1–146) and of Cys residues) (domain or fragment, UniProt Q9WZ49 147-610, looked up) ATMYKPSGNKRVTFKDVGGAEEAIEELKEVVEFLKDPSKFNRIGARMPKGILLVGPPGTGKTLLARAVAGEANVPFFHISGSDFVELFVGVGAARVRDLFAQAKAHAPSIVFIDEIDAVGRHRGAGLGGGHDEREQTLNQLLVEMDGFDSKEGIIVMAATNRPDILDPALLRPGRFDKKIVVDPPDMLGRKKILEIHTRNKPLAEDVNLEIIAKRTPGFVGADLENLVNEAALLAAREGRDKITMKDFEEAIDRVIAGPARKSKLISPKEKRIIAYHEAGHAVVSTVVPNGEPVHRISIIPRGYKALGYTLHLPEEDKYLVSRNELLDKLTALLGGRAAEEVVFGDVTSGAANDIERATEIARNMVSQLGMSEELGPLAWGKEEQEVFLGKEITRLRNYSEEVASKIDEEVKKIVTNSYERAKEIIRKYRKQLDNIVEILLEKETIEGDELRRILSEEFEKVVE",koff,≥ 1.6 s⁻¹
